Source: the nanobody polyreactivity screen of Harvey et al. (2022)

Test: yeast display, Sf9 membrane polyspecificity reagent, FACS + sequencing; frameworks hold sequencing errors
Summary of the method: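 After 36–48 hours of galactose induction, yeast (Saccharomyces cerevisiae BJ5465) displaying a synthetic nanobody library were stained at 4 °C for 1 hour with 10% biotinylated, detergent-solubilized Sf9 membrane reagent. Streptavidin microbeads enriched the stained cells before FACS sorting into low and high (top ~1%) gates on anti-HA and streptavidin fluorescence. Each clone's polyreactivity label reflects its gate of origin.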

| Sequence | polyreactivity (PSR sort gate) |
| --- | --- |
| KVHLVESGGGLVQAGGSLRLSSAAYGRTFYNNAMGWYIQAPGKERELVAAISGRGGSTYYADSLKGRFTISRDNAKNTVYVQMNILKPEDTAVYYCAATVKYSPIYDYWGQGTQVSVSS | high polyreactivity |
| KVQHVESGGGLVQAGGSLRLSCAASGLIFYRYAMGWYRQAPGKERELVAAISRSGSSTYYADSVKGRFTISRDNAKNTVYLQMNSLKPEDTAVYYCNAGYGWIWDDRGYWGQGSQVTVSS | high polyreactivity |
| KVQIVESGGGLVQAGRSLRLSCAASGLTFFGNAMGWYRQAPGKERDLVATISSCGGTSYADSVKGRFTISRDNAKNTVYLQMNSLKPEDTEVYYCAADIVEEFDYWGLGTQVTVSS | low polyreactivity |
| KVQLVESGAGFVQAGGSLRLSCAASGFIFPVYTMGWYRQAPGKERELVAAITQIGGSTHYADSVKGRFTISRDNAKNTVYLQMNSLKPEYTAVYYCNAVPHPYDWGQGTQVTLSS | low polyreactivity |
| KVQLVESGAGLVQAGGSLRLSCAASGSTFAQYAMGWYRQAPGKERELVAAISRGGGSTYYADSVKGRFTISRDTAKNTVYLQMHSLKPEDTAVYYCAADPRYRVTLGFDYWGQGTQVTVSS | high polyreactivity |
| KVQLVESGAGLVQAGGSLRLSCAAYGSIFVGYHMGWYRQAPGKERELVAGITGAGSTNYADSVKGRFTISRENAKNTVYLQMNSLKPEDTAVYYCAADYDTPQGTKYYYWGQGTKVTVSS | low polyreactivity |
| KVQLVESGAGLVQAGGSLRLTCAASGFTFAYYAMGWYRPAPGKERELVAAISWSGGITYYADSVKGRFTISRDNAKNTVYLQMNSLKPEDTAVDYCAAETFRGSYYDEDYDYWGQGTQVTVSS | low polyreactivity |
| KVQLVESGGGLFQAGGSLSLSCAATGSSYGGYVMGWYRQAPGKERELVASISGNGASTTYADSVKGRFTISRDNAKNTVYLQMNSLKQEDTAVYYCNARDWYIVWYEYWGQGTQVTVSS | low polyreactivity |
| KVQLVESGGGLVHAGGILRLISAASGSIFTYYYMGWYRQAPGKERELVAAISWNGGTTYYADSVKGRFTISRDNAKNTVYLQMNSLKPEDTAVYYCNKDGSYRYDYWGQGTQVTVSS | low polyreactivity |
| KVQLVESGGGLVQAGGSLRISCAASGITFVRNAMGWYRQAPGKERELVAAISSGGSTYYADSVKGSFTISRDNAKITVYLLMYSLKPEDNAVYFCAVLSSWRFSGYDYWGQGTQVNVSS | low polyreactivity |
| KVQLVESGGGLVQAGGSLRLSCAASGFIFGAYAMGWYRQAPGKERELVPSITWRGGSTYYADSVKGRFTISRDNAKNTVYLQMNSLKPEDTAVYYCAARVYLYNWQYFAYRAVDYWGQGTQVTVSS | high polyreactivity |
| KVQLVESGGGLVQAGGSLRLSCAASGFIFLGYAMGWYRQAPGKEREFVAVISRSGVRTYYADSVKGRFTISRDNAKNTVYLQMNSLKPEDTAVYYCAARYYSTDLEYWGQGTQVTVSS | high polyreactivity |
| KVQLVESGGGLVQAGGSLRLSCAASGFTFLRYGMGGYRQAPGKERELVASITSGGGTNYADSVKGRFTISRDNAKNTVYLQLNSLKPEDSAVYYCNAVFFYHGTKPAFISHDYWGQGTQVTVSS | low polyreactivity |
| KVQLVESGGGLVQAGGSLRLSCAASGFTFYWYDMGWYRQAPGKERELVATISTGGGTNYADSVKGRFTISRDNAKNTVYLQMKSLKPEDTAVYYCAADGSAGYQWGYDFEGDYWGQGTQVTVSS | high polyreactivity |
| KVQLVESGGGLVQAGGSLRLSCAASGIIFGRYAMGWYRQAPGKERELVATISRSGGTTYYADSVKGRFTISRDNAKNTVYLQMNSLKPEDTAVYYCAARWTSRYDYWGQGTQVTVSS | high polyreactivity |
| KVQLVESGGGLVQAGGSLRLSCAASGRIFYVNTMGWYRQAPGKERELVATITWGGDSTYYADSVKGRFTISRDNAKNTVYLQMNSLKPEDTAVYYCAADHHDIRLNTRRYDYWGQGTQVTVSS | low polyreactivity |
| KVQLVESGGGLVQAGGSLRLSCAASGRTFGDYAMGWSRQAPGKEREWVARISWDGGSTYYADSVKGRFTISRDNAKNTVYLQMNSLKPEDTAGYYCYSKSDYWGQGTQVTVSS | low polyreactivity |
| KVQLVESGGGLVQAGGSLRLSCAASGSIFGRYAMGWYIQAPGKERELVAGISSSGGRTYYADSVKGRFTISRDNAKNTVYLQMNSLKPEDTAVYYCAAVRSSWSYYYWGQGTQVTVSS | high polyreactivity |
| KVQLVESGGGLVQAGGSLRLSCAASGSTFFDNAKGWYRQAPGKERELVDAISWSGGSTYYADSVKGRFTISRDNAKNTVYFQMNSLKPEDTAVYYCAADWGHGTQVTVSS | low polyreactivity |
| KVQLVESGGGLVQAGGSLRLSCASSGSIFSGYAMGWYRQAPGKERELVAAISRGGSTNYADSVKGRFTISRDNAKNTVYLQMNSLKPEDTAVYYCARDTEGKYVGYGRFGYWGQGTQVTVSS | low polyreactivity |
| KVQLVESGGGLVQAGGSLRLTCAASGRIFPYYAMGWYRQAPGKERELVASIRYSAGNTYYADSVKGRFTISRDNAKNTVYLQMNSLKPEDTAVYYCWYTQNTLGNYWGQGTQVTVSS | low polyreactivity |
| KVQLVESGGGLVQSGGRLRLSCAASGSTFQIYTMGWYRQAPGKERELVAAITNGGGSTYYADSVKGRFTISRDNAKNTVYFQMISLKPEDTAVYYCAAEQSYPLIILYDYWGQGTQVTVSS | low polyreactivity |

| Sequence | polyreactivity (PSR sort gate) |
| --- | --- |
| KVQLVETGRGLVQAGGSLRISCAASGSTFGANAMVWYIQAPGKERELVAAITVRGGSTYYADSVKCRFTISRDNAKNNVYLQMISLKPEETAVYYCAARWACSTNSYYYWGQGTQVTVSS | high polyreactivity |
| LGQLVESGGGLVQAGGSLRLSCAASGFIFYYYDMGLYRQAPGKESELVATISRGGSRYYADSVKGRFTISRDNAKNTVYLQMNSLKPEDTAVYYCAAYRSFGYRNWNRFDYWGQGTQVTVSS | high polyreactivity |
| LVHLQESGGGLVHAGGGLRLSCAASGNIFTYVIMGWYRQPPVKERELVAAITYGTITNYADSVKGPFTISRDNAKITVDLQMKCLKPEDSAEYHCAVQSPRIEPRLYYWGQGTEVTVSS | high polyreactivity |
| LVKLQESGGGLVQAGGSLRLSCAASGTISPGGYMGRYRQAPGKEGELVASINVGGSTNYADSVKGRFTISRDNAKNTVYLQMNSLIPEDNAVYYCAVWGRNRLQLSYWGQGTQVTVSS | low polyreactivity |
| LVQLQESGGGLVQAGGSLRLSCAASGTISPGGYMGWYRQAPGKERELVASINVGGSTNYADSVKGRFTISRDNAKNTVYLQMNSLKPEDTAVYYCAVWGRNRLQLSYWGQGTQVTVSS | low polyreactivity |
| LVQLQESGGGLVQAGGSLRLSCAASGTISPGGYMGWYRQAPGKERELVASINVGGSTNYADSVKGRFTISRDNAKNTVYLQRNSLKPEDNAVYYCAVWGRNRLQLSYWGQGTQVTVSS | low polyreactivity |
| LVQLVESGGGLVQAGGSLRLSCAASGRIFPYYMGSYRQAPGKERELVAVKSSGDGTYYADSVKGRFTISRDNAKNTVYFQMNRLKPEDTAVYYCAADAPREYVDHYKYDDDYWGQGTQVTVSS | low polyreactivity |
| LVQLVESGGGLVQAGGSLRLSCAASGRTFDTYVMGWYSQAPGKERELVAAITTSGTSTYADSVKGRFTISRDNAKNTVYLQMNSLKPEDTAVYYCAADGPVYYSYVDWISFNEEYWGQGTQVTVSS | low polyreactivity |
| LVQLVESGGGVVQAGGSLRLSSAASGSIFRNNTMGWYRQAPGKERELVAAISGRGTRTSYADSVKGRFTISRDNAKNTVYLQMNSLKPEDTAVYYCAARSWYLYYWGQGTQVTVSS | low polyreactivity |
| PVLLVECGGALVQAGGSLRLTSAASGRIIKLYAMGWYRQAPGKVREFVAALTRSGARTYYADSVKGRFTISRDNAKNTVYFQMYSMKPEDSAVYSCAAYDTYDWYDYWGQGTQVTVSS | high polyreactivity |
| PVQHVESGGGLVQAGGSLRLSCAASGSIFVWYAMGWYRQAPGKERELVAAITINCGSTYYADSVKGRFTISRDTAKNIVYLQMNSLKPEAKAVYYCAADYYTRDRYEFDSWGQGTQVTVSS | low polyreactivity |
| PVQLQESGGGLVQAGGSLRLSCAARGSIFKVVDMGLYRQAPAKEREFVATIGEGGNTYYADSVKGRFTISRDNAKNTVYLQMNSLKPEDTAVYFSAVVLGTSYRYTYWGQGTQVTVSS | low polyreactivity |
| PVQLQESGGGLVQAGGSLRLSCAASGNIFDADIMGWNRQAPGKESDLVACIADGGSTNYADSVKGRFTISRDNAKNTVYLQMNSLKPEDTAVHYCAAIAYPDIPTCFDYDSDYFFRGQGTQVTVSS | low polyreactivity |
| PVQLVESGGGIVQAGGSLRLSCAASGRTFRYNPMGWSRQAPGKERELVAAITYSGGSTYYADSVKGRFTISRDNEKNTVYLQMNSMKPEETAVYYCAAGWRRFDYWGQGTQVTVSS | high polyreactivity |
| PVQLVESGGGLVQAGGSLRLSCAACGRIFRYYAMGWYRQAPGKERELVAAISRSGGRTYYADSVKGRFTISRDNAKNTVYLEMNSLKPEDTAVYYCNALYYKYYPSRYDYWGLGTQVTVSS | high polyreactivity |
| PVQLVESGGGLVQAGGSLRLSCAASGFIFDSYPMGWYRQAPGKERELVAAISYSAGSTSYADSVKGRFTISRDNAKNTVYLQMKSLKPEDTAVYYCNARYYPLYSNSYDSWGQGTQVTVSS | low polyreactivity |
| PVQLVESGGGLVQAGGSLRLSCAASGFIFYLYAMGWYRQAPGKERELVASINVSGASTRYADSVKGRFTISRDNSKNTVYLQMKSLKPEDTAVYYCAAAITELYFEAYYYWGQGTQVTVSS | low polyreactivity |
| PVQLVESGGGLVQAGGSLRLSCAASGFIFYYNTMGSYRQAPGKERELVAAINSGGSTYYADSVKGRFTISRDNAKNTVYLQMNSLKPEDTAVYYCAKRYAVSSGYYYWGQGTQVTVSS | high polyreactivity |
| PVQLVESGGGLVQAGGSLRLSCAASGFIYPRYAMGWYRQAPGKEREVVAAISYSGGSTYYADSVKGRFTISRDNAKNTVYLQMNSLKPEDTAVYYCAARLFKDSWMDYWGQGTQVTVSS | high polyreactivity |
| PVQLVESGGGLVQAGGSLRLSCAASGFTFDRYAMGWYRQAPGKERELVAAISRSGATTYYADSVKGRFTISRDNAKNTVYLQMNSLKPEDTAVYYCNADDVWYEYDYWGQGTQVTVSS | high polyreactivity |
| PVQLVESGGGLVQAGGSLRLSCAASGFTFYSYAMGWYRQAPGKEREFVAAGSTYYADSVKGRFTISRDNAKNTVYLQMNSLKPEDTAVYYCAADPWIYVQSYGFWGQGTQVTVSS | low polyreactivity |
